# Tests used:
# [1] = molecular target: DC-SIGNR (DC-SIGN Related), human, expressed on HeLa-DC-SIGN-R cells (homo sapien) (UniProt Q9H2X3); experiment: flow cytometry on HeLa-DC-SIGN-R cells
# [2] = molecular target: DC-SIGN (Dendritic Cell-Specific Intercellular adhesion molecule 3-Grabbing Nonintegrin), human, expressed on HeLa-DC-SIGN cells (homo sapien) (UniProt Q9NNX6); experiment: flow cytometry on HeLa-DC-SIGN cells
# Sequence of DC-SIGN (Dendritic Cell-Specific Intercellular adhesion molecule 3-Grabbing Nonintegrin), human, expressed on HeLa-DC-SIGN cells (homo sapien) (Q9NNX6 whole entry): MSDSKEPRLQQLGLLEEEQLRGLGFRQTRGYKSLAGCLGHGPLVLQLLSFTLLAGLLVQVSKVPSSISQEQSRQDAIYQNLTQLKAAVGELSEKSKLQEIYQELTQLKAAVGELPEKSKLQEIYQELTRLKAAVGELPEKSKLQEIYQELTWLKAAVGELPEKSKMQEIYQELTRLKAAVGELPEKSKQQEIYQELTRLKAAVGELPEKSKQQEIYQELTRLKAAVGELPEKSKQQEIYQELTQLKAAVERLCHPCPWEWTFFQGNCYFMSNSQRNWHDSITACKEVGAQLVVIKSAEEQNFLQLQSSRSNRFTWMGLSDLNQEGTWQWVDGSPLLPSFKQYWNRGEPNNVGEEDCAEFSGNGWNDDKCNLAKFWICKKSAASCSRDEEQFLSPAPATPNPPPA
# Sequence of DC-SIGNR (DC-SIGN Related), human, expressed on HeLa-DC-SIGN-R cells (homo sapien) (Q9H2X3 whole entry C368X): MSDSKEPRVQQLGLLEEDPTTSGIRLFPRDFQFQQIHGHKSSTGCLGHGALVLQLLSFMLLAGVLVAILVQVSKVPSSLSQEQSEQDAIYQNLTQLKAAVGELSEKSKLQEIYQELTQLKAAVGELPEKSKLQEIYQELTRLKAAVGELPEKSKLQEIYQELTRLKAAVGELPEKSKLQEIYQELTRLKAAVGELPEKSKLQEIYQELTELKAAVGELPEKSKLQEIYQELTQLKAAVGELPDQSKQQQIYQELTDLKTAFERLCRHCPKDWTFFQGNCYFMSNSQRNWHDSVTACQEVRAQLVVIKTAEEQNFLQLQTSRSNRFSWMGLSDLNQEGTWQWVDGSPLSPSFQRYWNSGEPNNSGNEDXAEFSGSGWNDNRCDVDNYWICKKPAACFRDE
% Positive Cells [1],Mean fluorescence intensity [1],% Positive Cells [2],Mean fluorescence intensity [2],Substance
3.5%,17.1,90.6%,81.1,"120507 (507D), DC-SIGN-specific mouse IgG2b mAb (BD Pharmingen) (antibody)"
96%,129,1.1%,14.2,"120604 (604L), DC-SIGN-R-specific mouse IgG2b mAb (BD Pharmingen) (antibody)"
94.8%,102,67.3%,46.6,"120612 (612X), mouse IgG2a mAb that recognizes both DC-SIGN and DC-SIGN-R (BD Pharmingen) (antibody)"
2.8%,13.7,1%,16.9,Isotype control (antibody)

# Source: patent US7022323
